First the molecules themselves.
B1: sp¦Q6NVY1¦HIBCH_HUMAN (protein, UniProt Q6NVY1 33-386, looked up)
3-hydroxyisobutyryl-CoA …: DAAEEVLLEKKGCTGVITLNRPKFLNALTLNMIRQIYPQLKKWEQDPETFLIIIKGAGGKAFCAGGDIRVISEAEKAKQKIAPVFFREEYMLNNAVGSCQKPYVALIHGITMGGGVGLSVHGQFRVATEKCLFAMPETAIGLFPDVGGGYFLPRLQGKLGYFLALTGFRLKGRDVYRAGIATHFVDSEKLAMLEEDLLALKSPSKENIASVLENYHTESKIDRDKSFILEEHMDKINSCFSANTVEEIIENLQQDGSSFALEQLKVINKMSPTSLKITLRQLMEGSSKTLQEVLTMEYRLSQACMRGHDFHEGVRAVLIDKDQSPKWKPADLKEVTEEDLNNHFKSLGSSDLKF
B2: sp¦Q9NPJ3¦ACO13_HUMAN (protein, UniProt Q9NPJ3 1-140, looked up)
Acyl-coenzyme A thioesterase …: MTSMTQSLREVIKAMTKARNFERVLGKITLVSAAPGKVICEMKVEEEHTNAIGTLHGGLTATLVDNISTMALLCTERGAPGVSVDMNITYMSPAKLGEDIVITAHVLKQGKTLAFTSVDLTNKATGKLIAQGRHTKHLGN
B3: sp¦O00160¦MYO1F_HUMAN (protein, UniProt O00160 1-1098, looked up)
Unconventional myosin-If: MGSKERFHWQSHNVKQSGVDDMVLLPQITEDAIAANLRKRFMDDYIFTYIGSVLISVNPFKQMPYFTDREIDLYQGAAQYENPPHIYALTDNMYRNMLIDCENQCVIISGESGAGKTVAAKYIMGYISKVSGGGEKVQHVKDIILQSNPLLEAFGNAKTVRNNNSSRFGKYFEIQFSRGGEPDGGKISNFLLEKSRVVMQNENERNFHIYYQLLEGASQEQRQNLGLMTPDYYYYLNQSDTYQVDGTDDRSDFGETLSAMQVIGIPPSIQQLVLQLVAGILHLGNISFCEDGNYARVESVDLLAFPAYLLGIDSGRLQEKLTSRKMDSRWGGRSESINVTLNVEQAAYTRDALAKGLYARLFDFLVEAINRAMQKPQEEYSIGVLDIYGFEIFQKNGFEQFCINFVNEKLQQIFIELTLKAEQEEYVQEGIRWTPIQYFNNKVVCDLIENKLSPPGIMSVLDDVCATMHATGGGADQTLLQKLQAAVGTHEHFNSWSAGFVIHHYAGKVSYDVSGFCERNRDVLFSDLIELMQTSEQAFLRMLFPEKLDGDKKGRPSTAGSKIKKQANDLVATLMRCTPHYIRCIKPNETKRPRDWEENRVKHQVEYLGLKENIRVRRAGFAYRRQFAKFLQRYAILTPETWPRWRGDERQGVQHLLRAVNMEPDQYQMGSTKVFVKNPESLFLLEEVRERKFDGFARTIQKAWRRHVAVRKYEEMREEASNILLNKKERRRNSINRNFVGDYLGLEERPELRQFLGKRERVDFADSVTKYDRRFKPIKRDLILTPKCVYVIGREKVKKGPEKGQVCEVLKKKVDIQALRGVSLSTRQDDFFILQEDAADSFLESVFKTEFVSLLCKRFEEATRRPLPLTFSDTLQFRVKKEGWGGGGTRSVTFSRGFGDLAVLKVGGRTLTVSVGDGLPKSSKPTRKGMAKGKPRRSSQAPTRAAPAPPRGMDRNGVPPSARGGPLPLEIMSGGGTHRPPRGPPSTSLGASRRPRARPPSEHNTEFLNVPDQGMAGMQRKRSVGQRPVPGVGRPKPQPRTHGPRCRALYQYVGQDVDELSFNVNEVIEILMEDPSGWWKGRLHGQEGLFPGNYVEKI
B4: sp¦P54687¦BCAT1_HUMAN (protein, UniProt P54687 1-386, looked up)
Branched-chain-amino-acid …: MKDCSNGCSAECTGEGGSKEVVGTFKAKDLIVTPATILKEKPDPNNLVFGTVFTDHMLTVEWSSEFGWEKPHIKPLQNLSLHPGSSALHYAVELFEGLKAFRGVDNKIRLFQPNLNMDRMYRSAVRATLPVFDKEELLECIQQLVKLDQEWVPYSTSASLYIRPTFIGTEPSLGVKKPTKALLFVLLSPVGPYFSSGTFNPVSLWANPKYVRAWKGGTGDCKMGGNYGSSLFAQCEAVDNGCQQVLWLYGEDHQITEVGTMNLFLYWINEDGEEELATPPLDGIILPGVTRRCILDLAHQWGEFKVSERYLTMDDLTTALEGNRVREMFGSGTACVVCPVSDILYKGETIHIPTMENGPKLASRILSKLTDIQYGREESDWTIVLS
B5: sp¦P13804¦ETFA_HUMAN (protein, UniProt P13804 20-333, looked up)
Electron transfer …: QSTLVIAEHANDSLAPITLNTITAATRLGGEVSCLVAGTKCDKVAQDLCKVAGIAKVLVAQHDVYKGLLPEELTPLILATQKQFNYTHICAGASAFGKNLLPRVAAKLEVAPISDIIAIKSPDTFVRTIYAGNALCTVKCDEKVKVFSVRGTSFDAAATSGGSASSEKASSTSPVEISEWLDQKLTKSDRPELTGAKVVVSGGRGLKSGENFKLLYDLADQLHAAVGASRAAVDAGFVPNDMQVGQTGKIVAPELYIAVGISGAIQHLAGMKDSKTIVAINKDPEAPIFQVADYGIVADLFKVVPEMTEILKKK
B6: sp¦P30044¦PRDX5_HUMAN (protein, UniProt P30044 53-214, looked up)
Peroxiredoxin-5, mitochondrial: MAPIKVGDAIPAVEVFEGEPGNKVNLAELFKGKKGVLFGVPGAFTPGCSKTHLPGFVEQAEALKAKGVQVVACLSVNDAFVTGEWGRAHKAEGKVRLLADPTGAFGKETDLLLDDSLVSIFGNRRLKRFSMVVQDGIVKALNVEPDGTGLTCSLAPNIISQL
B7: sp¦P22087¦FBRL_HUMAN (protein, UniProt P22087 1-321, looked up)
rRNA 2'-O-methyltransferase …: MKPGFSPRGGGFGGRGGFGDRGGRGGRGGFGGGRGRGGGFRGRGRGGGGGGGGGGGGGRGGGGFHSGGNRGRGRGGKRGNQSGKNVMVEPHRHEGVFICRGKEDALVTKNLVPGESVYGEKRVSISEGDDKIEYRAWNPFRSKLAAAILGGVDQIHIKPGAKVLYLGAASGTTVSHVSDIVGPDGLVYAVEFSHRSGRDLINLAKKRTNIIPVIEDARHPHKYRMLIAMVDVIFADVAQPDQTRIVALNAHTFLRNGGHFVISIKANCIDSTASAEAVFASEVKKMQQENMKPQEQLTLEPYERDHAVVVGVYRPPPKVKN
B8: sp¦Q9NVP1¦DDX18_HUMAN (protein, UniProt Q9NVP1 1-670, looked up)
ATP-dependent RNA helicase …: MSHLPMKLLRKKIEKRNLKLRQRNLKFQGASNLTLSETQNGDVSEETMGSRKVKKSKQKPMNVGLSETQNGGMSQEAVGNIKVTKSPQKSTVLTNGEAAMQSSNSESKKKKKKKRKMVNDAEPDTKKAKTENKGKSEEESAETTKETENNVEKPDNDEDESEVPSLPLGLTGAFEDTSFASLCNLVNENTLKAIKEMGFTNMTEIQHKSIRPLLEGRDLLAAAKTGSGKTLAFLIPAVELIVKLRFMPRNGTGVLILSPTRELAMQTFGVLKELMTHHVHTYGLIMGGSNRSAEAQKLGNGINIIVATPGRLLDHMQNTPGFMYKNLQCLVIDEADRILDVGFEEELKQIIKLLPTRRQTMLFSATQTRKVEDLARISLKKEPLYVGVDDDKANATVDGLEQGYVVCPSEKRFLLLFTFLKKNRKKKLMVFFSSCMSVKYHYELLNYIDLPVLAIHGKQKQNKRTTTFFQFCNADSGTLLCTDVAARGLDIPEVDWIVQYDPPDDPKEYIHRVGRTARGLNGRGHALLILRPEELGFLRYLKQSKVPLSEFDFSWSKISDIQSQLEKLIEKNYFLHKSAQEAYKSYIRAYDSHSLKQIFNVNNLNLPQVALSFGFKVPPFVDLNVNSNEGKQKKRGGGGGFGYQKTKKVEKSKIFKHISKKSSDSRQFSH
B9: sp¦Q9HAV0¦GBB4_HUMAN (protein, UniProt Q9HAV0 2-340, looked up)
Guanine nucleotide-binding …: SELEQLRQEAEQLRNQIQDARKACNDATLVQITSNMDSVGRIQMRTRRTLRGHLAKIYAMHWGYDSRLLVSASQDGKLIIWDSYTTNKMHAIPLRSSWVMTCAYAPSGNYVACGGLDNICSIYNLKTREGNVRVSRELPGHTGYLSCCRFLDDSQIVTSSGDTTCALWDIETAQQTTTFTGHSGDVMSLSLSPDMRTFVSGACDASSKLWDIRDGMCRQSFTGHVSDINAVSFFPNGYAFATGSDDATCRLFDLRADQELLLYSHDNIICGITSVAFSKSGRLLLAGYDDFNCNVWDTLKGDRAGVLAGHDNRVSCLGVTDDGMAVATGSWDSFLRIWN
B10: sp¦Q12931¦TRAP1_HUMAN (protein, UniProt Q12931 60-704, looked up)
Heat shock protein 75 kDa, …: STQTAEDKEEPLHSIISSTESVQGSTSKHEFQAETKKLLDIVARSLYSEKEVFIRELISNASDALEKLRHKLVSDGQALPEMEIHLQTNAEKGTITIQDTGIGMTQEELVSNLGTIARSGSKAFLDALQNQAEASSKIIGQFGVGFYSAFMVADRVEVYSRSAAPGSLGYQWLSDGSGVFEIAEASGVRTGTKIIIHLKSDCKEFSSEARVRDVVTKYSNFVSFPLYLNGRRMNTLQAIWMMDPKDVREWQHEEFYRYVAQAHDKPRYTLHYKTDAPLNIRSIFYVPDMKPSMFDVSRELGSSVALYSRKVLIQTKATDILPKWLRFIRGVVDSEDIPLNLSRELLQESALIRKLRDVLQQRLIKFFIDQSKKDAEKYAKFFEDYGLFMREGIVTATEQEVKEDIAKLLRYESSALPSGQLTSLSEYASRMRAGTRNIYYLCAPNRHLAEHSPYYEAMKKKDTEVLFCFEQFDELTLLHLREFDKKKLISVETDIVVDHYKEEKFEDRSPAAECLSEKETEELMAWMRNVLGSRVTNVKVTLRLDTHPAMVTVLEMGAARHFLRMQQLAKTQEERAQLLQPTLEINPRHALIKKLNQLRASEPGLAQLLVDQIYENAMIAAGLVDDPRAMVGRLNELLVKALERH
B11: sp¦P00505¦AATM_HUMAN (protein, UniProt P00505 30-430, looked up)
Aspartate aminotransferase, …: SSWWTHVEMGPPDPILGVTEAFKRDTNSKKMNLGVGAYRDDNGKPYVLPSVRKAEAQIAAKNLDKEYLPIGGLAEFCKASAELALGENSEVLKSGRFVTVQTISGTGALRIGASFLQRFFKFSRDVFLPKPTWGNHTPIFRDAGMQLQGYRYYDPKTCGFDFTGAVEDISKIPEQSVLLLHACAHNPTGVDPRPEQWKEIATVVKKRNLFAFFDMAYQGFASGDGDKDAWAVRHFIEQGINVCLCQSYAKNMGLYGERVGAFTMVCKDADEAKRVESQLKILIRPMYSNPPLNGARIAAAILNTPDLRKQWLQEVKVMADRIIGMRTQLVSNLKKEGSTHNWQHITDQIGMFCFTGLKPEQVERLIKEFSIYMTKDGRISVAGVTSSNVGYLAHAIHQVTK

The subject of the assay is human HL60 cells. Description: SWATH-MS proteomics, differential protein representation, akirin2 KO vs WT HL60 cells. Format: cell-based. To be noted: SWATH-MS, akirin2 KO vs WT HL60 cells; sheet "Under-represented in KO". The gist of the method: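 Differential representation compares akirin2 KO with WT HL60 across three biological replicates, 5 µg digest each, acquired by data-independent SWATH on a 120-min gradient. Library built from combined IDA runs searched with Paragon; proteins accepted at 1% FDR, with total-area-sum normalization.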
Consider B1, for which the “Fold Change” value is on record as 0.7678 and the “Log (Fold Change)” value was -0.1147.
On to B2, for which the “Fold Change” value amounted to 0.7707 and the “Log (Fold Change)” value is recorded as -0.1131.
The corresponding values for B3 are 0.7701 and -0.1134.
For B4, the “Fold Change” value is reported as 0.7726 and the “Log (Fold Change)” value was -0.112.
The corresponding values for B5 are 0.7634 and -0.1173.
As to B6, the “Fold Change” value is on record as 0.764 and the “Log (Fold Change)” value is -0.1169.
Turning to B7, the “Fold Change” value is 0.7688 and the “Log (Fold Change)” value is reported as -0.1142.
B8: the “Fold Change” value turned out to be 0.7616 and the “Log (Fold Change)” value is reported as -0.1182.
Turning to B9, the “Fold Change” value was determined as 0.7672 and the “Log (Fold Change)” value is reported as -0.1151.
B10: the “Fold Change” value worked out at 0.7682 and the “Log (Fold Change)” value was -0.1145.
Consider B11, for which the “Fold Change” value was 0.7669 and the “Log (Fold Change)” value was -0.1152.

Values taken from PMC8298264, “Function of cofactor Akirin2 in the regulation of gene expression in model human neutrophil-like HL60 cells” (Bioscience Reports, 2021).
